Assay results: patent publication US20110300138A1 (published 2011)

What was measured:
[1] = target: TSHR260-alkaline phosphatase (TSHR260-AP) (human) (UniProt P05187); assay: TSHR260-AP bridge ELISA, full length TSHR on wells; 10 µg/mL, diluted in HBD
[2] = target: TSHR260-alkaline phosphatase (TSHR260-AP) (human) (UniProt P05187); assay: TSHR260-AP bridge ELISA, full length TSHR on wells; 0.1 µg/mL, diluted in HBD
[3] = target: TSHR260-alkaline phosphatase (TSHR260-AP) (human) (UniProt P05187); assay: TSHR260-AP bridge ELISA, full length TSHR on wells; 250 µg/mL, diluted in HBD
[4] = target: TSHR260-alkaline phosphatase (TSHR260-AP) (human) (UniProt P05187); assay: TSHR260-AP bridge ELISA, full length TSHR on wells; 0.005 µg/mL, diluted in HBD
[5] = target: TSHR260-alkaline phosphatase (TSHR260-AP) (human) (UniProt P05187); assay: TSHR260-AP bridge ELISA, full length TSHR on wells; 10 µg/mL, diluted in assay buffer
[6] = target: TSHR260-alkaline phosphatase (TSHR260-AP) (human) (UniProt P05187); assay: TSHR260-AP bridge ELISA, full length TSHR on wells; 0.1 µg/mL, diluted in assay buffer
[7] = target: TSHR260-alkaline phosphatase (TSHR260-AP) (human) (UniProt P05187); assay: TSHR260-AP bridge ELISA, full length TSHR on wells; 250 µg/mL, diluted in assay buffer
[8] = target: TSHR260-alkaline phosphatase (TSHR260-AP) (human) (UniProt P05187); assay: TSHR260-AP bridge ELISA, full length TSHR on wells; 0.005 µg/mL, diluted in assay buffer

For 5C9 Fab, the Mean absorbance at 405 nm (absorbance at 405 nm) [1] was -0.008, the Mean absorbance at 405 nm (absorbance at 405 nm) [2] was -0.009 and the Mean absorbance at 405 nm (absorbance at 405 nm) [3] was -0.008. For the same substance, the Mean absorbance at 405 nm (absorbance at 405 nm) [4] was -0.012, the Mean absorbance at 405 nm (absorbance at 405 nm) [5] was 0.016 and the Mean absorbance at 405 nm (absorbance at 405 nm) [6] was -0.009. The Mean absorbance at 405 nm (absorbance at 405 nm) [7] was 0.204 and the Mean absorbance at 405 nm (absorbance at 405 nm) [8] was 0.
